Test results taken from patent publication US20250270301A1 (GEN2 NEUROSCIENCE, published 2025).
Residue numbers refer to the chain shown, from its start. Read-outs that look alike come from different tables or passages of the source. Values belong to the binder of their own block, whether it stands above or below them.

Key:
[1] = target: T1, full length recombinant human 2N4R tau (human, UniProt P10636 1-758); test: ELISA, tau coated on the plate
T1 construct: bought from rPeptide; pHrodo Red maleimide-labelled where it stands in uptake assays; also called tau1-441; full length tau
T1 sequence (P10636 other isoform, or with tags, fused parts or gaps limits assumed): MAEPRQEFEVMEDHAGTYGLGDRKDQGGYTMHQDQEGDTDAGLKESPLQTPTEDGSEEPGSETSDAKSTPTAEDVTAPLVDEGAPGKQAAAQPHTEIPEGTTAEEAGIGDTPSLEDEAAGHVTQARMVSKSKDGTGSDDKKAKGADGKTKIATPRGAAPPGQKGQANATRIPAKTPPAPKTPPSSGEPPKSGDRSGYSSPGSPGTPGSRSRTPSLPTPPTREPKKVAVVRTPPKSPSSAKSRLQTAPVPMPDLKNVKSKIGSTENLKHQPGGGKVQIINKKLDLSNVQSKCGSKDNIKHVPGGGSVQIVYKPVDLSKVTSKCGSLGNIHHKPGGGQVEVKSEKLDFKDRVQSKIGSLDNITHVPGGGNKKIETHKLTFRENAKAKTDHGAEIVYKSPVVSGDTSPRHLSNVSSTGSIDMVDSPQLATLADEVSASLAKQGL
Method: ELISA plates were coated with antigen (non-conjugated antigen peptide (Antigen peptide ([C]-[…]-amide (SEQ ID NO: 13)) or full length 2N4R tau (SEQ ID NO: 2), 100 ng/well; or 1% BSA in 1×TBS) in 1× carbonate-bicarbonate buffer for 1 hour at 37° C. Antigen was removed from wells and the plates were then blocked for 1 hour at RT with 5% dried milk in 1×TBS. Blocking solution was removed, HEK293F cell supernatant (10 μg/mL, to 0.0001 μg/mL in 1% BSA/1×TBS) was added to relevant wells, and plates were incubated for 1 hour at RT with gentle shaking. Plates were then washed four times with TBS/0.1% Tween (TBST). Anti-rabbit IgG-HRP antibody (Sigma, St Louis, MO, USA), diluted 1:5000 in 5% milk/TBS, was added to each well and plates were incubated for 1 hour at RT with gentle shaking before being washed four times with TBST. 3,3′,5,5′-tetramethylbenzidine (TMB) ELISA solution was added to each well and plates were incubated for 15 mins at RT. An equal volume of 1 M sulfuric acid was added to each well and OD was measured at 450 nm.

[2] = target: T1, full length recombinant human 2N4R tau; test: SPR MCK, IgG on Protein A, tau in flow
Method: Anti-tau IgGs bind to full length 2N4R tau (SEQ ID NO: 2) with high affinity. […] It is predicted that the binding affinity of these antibodies would be equivalent to any tau species containing the epitope corresponding to amino acids 369-381 of 2N4R tau (SEQ ID NO: 1), if this sequence is accessible.
19.2 Assessment of antibody binding to tau: Binding of anti-tau hIgG1 to full length recombinant 2N4R tau (Rpeptide; SEQ ID NO: 2) was assessed using the Biacore T200 (GE Healthcare, Chicago, IL, USA) running Biacore T200 Evaluation Software V2.0.1. hIgG1 were immobilised on a Protein A capture sensor chip in running buffer (HBS-EP+ buffer containing 1 mg/mL BSA) at 25° C., captured to ˜50 RU at 10 μL/min. For multi-cycle kinetics experiments (clone #66), recombinant 2N4R tau was flowed at concentrations ranging from 0.39 nM to 50 nM in running buffer at 40 μL/min, with an association time of 150 s and a dissociation time of 250 s. Optimised conditions for multiple-cycle kinetics experiments were applied to clone #44: recombinant 2N4R tau was flowed at concentrations ranging from 0.39 nM to 12.5 nM (2-fold dilutions) with an association time of 60 s and a dissociation time of 200 s (cropped to 65 s to improve analysis fit). Curves were compared to a reference cell that was mock immobilized (no antibody present).

Bovine serum albumin [3] = target: T2, Bovine serum albumin (bovine, UniProt P02769 25-607); test: ELISA on 1% BSA, HEK supernatant, anti-human IgG-HRP, n=1
T2 construct: also called BSA
T2 sequence (P02769 25-607 limits assumed): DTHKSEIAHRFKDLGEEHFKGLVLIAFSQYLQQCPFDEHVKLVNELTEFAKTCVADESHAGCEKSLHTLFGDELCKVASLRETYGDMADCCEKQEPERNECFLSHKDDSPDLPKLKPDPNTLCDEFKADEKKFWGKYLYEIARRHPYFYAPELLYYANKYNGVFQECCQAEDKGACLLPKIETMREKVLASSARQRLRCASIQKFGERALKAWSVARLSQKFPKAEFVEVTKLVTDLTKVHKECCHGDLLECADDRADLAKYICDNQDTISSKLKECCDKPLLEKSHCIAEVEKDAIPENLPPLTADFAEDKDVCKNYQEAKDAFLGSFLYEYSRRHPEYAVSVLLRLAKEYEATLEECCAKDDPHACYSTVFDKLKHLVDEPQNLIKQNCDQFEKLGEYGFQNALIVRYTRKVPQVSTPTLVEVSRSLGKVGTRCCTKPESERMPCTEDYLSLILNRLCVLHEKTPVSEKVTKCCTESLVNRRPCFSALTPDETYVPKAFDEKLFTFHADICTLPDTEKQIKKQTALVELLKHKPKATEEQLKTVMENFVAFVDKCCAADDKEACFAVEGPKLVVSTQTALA
Method: FIG. 7. A panel of humanised anti-tau IgG bind to full length recombinant 2N4R tau in an ELISA format. Supernatants from HEK cells transiently transfected with each IgG clone were tested at 1:100 for binding to full length recombinant 2N4R tau (solid bars). […] Binding of anti-tau hIgG1 was detected using an HRP-conjugated anti-human secondary antibody and data are shown from a representative experiment (n=1 replicate).
Antigen was removed from wells and the plates were then blocked for 1 hour at RT with 5% dried milk in 1×TBS. Blocking solution was removed, HEK293 cell supernatant (1:100 in 1% BSA/1×TBS) was added to relevant wells, and plates were incubated for 1 hour at RT with gentle shaking. Plates were then washed four times with TBS/0.1% Tween (TBST). Goat anti-human IgG-HRP antibody (Thermo Fisher Scientific, Waltham, MA, USA), diluted 1:2000 in 5% milk/TBS, was added to each well and plates were incubated for 1 hour at RT with gentle shaking before being washed four times with TBST. 3,3′,5,5′-tetramethylbenzidine (TMB) ELISA solution was added to each well and plates were incubated for 15 mins at RT. An equal volume of 1 M sulfuric acid was added to each well and OD was measured at 450 nm.

[4] = target: T1, full length recombinant human 2N4R tau; test: SPR MCK, IgG on Protein A, tau in flow at 100 µL/min
[5] = target: T1, full length recombinant human 2N4R tau; test: SPR SCK, IgG on Protein A, tau in flow
Method: 21.5 Assessment of antibody binding to tau (Biacore SCK analysis): Binding of anti-tau hIgG1 to full length recombinant 2N4R tau (Rpeptide; SEQ ID NO: 2) was assessed using the Biacore T200 (GE Healthcare, Chicago, IL, USA) running Biacore T200 Evaluation Software V2.0.1. hIgG1 were immobilised on a Protein A capture sensor chip in running buffer (HBS-EP+ buffer containing 1 mg/mL BSA) at 25° C., captured to ˜50 RU at 10 μL/min. For single-cycle kinetics experiments, recombinant 2N4R tau was flowed at concentrations ranging from 1.25 nM to 10 nM (2-fold dilutions) with an association time of 60 s and a dissociation time of 200 s. Curves were compared to a reference cell that was mock immobilized (no antibody present).

[6] = target: aggregated (oligomeric) P301S 2N4R tau, pHrodo-labelled (human, UniProt P10636 1-758, pHrodo Red maleimide label); test: cell-based or functional assay
Chain of aggregated (oligomeric) P301S 2N4R tau, pHrodo-labelled (P10636 other isoform, or with tags, fused parts or gaps P301S P301S): as the sequence (P10636 other isoform, or with tags, fused parts or gaps limits assumed) above, with P301S counted along it

[7] = target: monomeric P301S 2N4R tau, pHrodo-labelled (human, UniProt P10636 1-758, pHrodo Red maleimide label); test: cell-based or functional assay
Chain of monomeric P301S 2N4R tau, pHrodo-labelled (P10636 other isoform, or with tags, fused parts or gaps P301S P301S): as the sequence (P10636 other isoform, or with tags, fused parts or gaps limits assumed) above, with P301S counted along it

[8] = target: T1, full length recombinant human 2N4R tau; test: SPR SCK, IgG on Protein A, tau in flow; remark: listed apart in the source
[9] = target: T1, full length recombinant human 2N4R tau; test: SPR MCK, IgG on Protein A, tau in flow; remark: listed apart in the source
Method: Slight variations in RMAX are considered likely to be due to differences in ligand capture and not reflective of significant variation in antibody binding characteristics.
22.2 Assessment of antibody binding to tau (Biacore MCK analysis): Binding of anti-tau hIgG1 to full length recombinant 2N4R tau (Rpeptide; SEQ ID NO: 2) was assessed using the Biacore T200 (GE Healthcare, Chicago, IL, USA) running Biacore T200 Evaluation Software V2.0.1. hIgG1 were immobilised on a Protein A capture sensor chip in running buffer (HBS-EP+ buffer containing 1 mg/mL BSA) at 25° C., captured to ˜50 RU at […]. For multi-cycle kinetics experiments, recombinant 2N4R tau was flowed at concentrations ranging from 0.39 nM to 12.5 nM in running buffer at 40 μL/min, with an association time of 60 s and a dissociation time of 200 s. Curves were compared to a reference cell that was mock immobilized (no antibody present).

Bovine serum albumin [10] = target: T2, Bovine serum albumin; test: ELISA on 1% BSA, HEK supernatant, anti-human IgG-HRP, n=1; remark: listed apart in the source

EC50 [1]: 0.82 nM
B1: Clone 1 (#66) rabbit monoclonal IgG (antibody, V domains shown)
VH: QSVEESGGRLVTPGTPLTLTCTVSGIDLSSNAMIWVRQAPGKGLEYIGNIGTHGTTYYASWAKGRFTISKTSTTVDLKMTSPTTEDTATYFCSRGDIWGPGTLVTVSL
VL: AQVLTQTESPVSAPLRGTVTINCQASQSVDDNNNLAWYQQKPGQPPKLLIYEASTLASGVSSRFKGSGSGTQFTLTISDVQCDDAATYYCLGEFSCSSADCVVFGGGTEVVVKG
notes: rabbit IgG; also called clone #66; B9

Kd [2]: 2.39 nM | koff [2]: 0.00478 s⁻¹ | kon [2]: 2.01e+06 M⁻¹ s⁻¹
B2: Clone #66 (Clone 1) chimeric human IgG1 (antibody, V domains shown)
VH: B1 VH
VL: B1 VL
notes: rabbit VH and VK on human IgG1; also called #66 hIgG1

binding result (Bovine serum albumin [3]): no binding (tested: supernatant 1:100) | Fold improvement (KD, to pVH/pVL) [4]: 1 | Kd [4]: 7.76 nM | koff [4]: 0.0147 s⁻¹ | kon [4]: 1.89e+06 M⁻¹ s⁻¹ | Kd [5]: 8.12 nM | Relative KD (to VH0VK0) [5]: 2.12 | koff [5]: 0.0294 s⁻¹ | kon [5]: 3.61e+06 M⁻¹ s⁻¹ | increase of aggregated tau uptake into human iPSC-derived microglia [6]: 115% | inhibition of aggregated tau uptake into human astrocytes [6]: 41.3% | inhibition of aggregated tau uptake into human iPSC-derived astrocytes [6]: 61.9% | increase of monomeric tau uptake into human iPSC-derived microglia [7]: 59.4% | inhibition of monomeric tau uptake into human astrocytes [7]: 52.3% | inhibition of monomeric tau uptake into human iPSC-derived astrocytes [7]: 94.1% | Fold change (KD, to pVH/pVL) [8]: 1 | Kd [8]: 6.58 nM | koff [8]: 0.012 s⁻¹ | kon [8]: 1.82e+06 M⁻¹ s⁻¹ | Kd [9]: 5.84 nM | Relative KD (to VH0VK0) [9]: 1.8 | koff [9]: 0.0316 s⁻¹ | kon [9]: 5.41e+06 M⁻¹ s⁻¹
B3: #44_VH4VK4 humanised hIgG1 (antibody, V domains shown)
VH: QVQLQESGPGLVKPSETLSLTCTVSGIDLSSYAMAWVRQAPGKGLEWIGCIDRRGGTFYASWVKGRFTISKDTSKTTVDLQMTSLTAEDTATYFCARDSGAFDPWGQGTLVTVSS
VL: DIQMTQSPSSLSASVGDRVTITCQASQSVYDNYLAWYQQKPGQPPKLLIHAASNLASGVPSRFSGSGSGTEFTLTISSLQPDDFATYYCLGEFSCTTTDCNVFGGGTKVEIK
notes: also called VH4Vκ4; pVH/pVL

Fold improvement (KD, to pVH/pVL) [4]: 1.9 | Kd [4]: 4.01 nM | koff [4]: 0.00957 s⁻¹ | kon [4]: 2.39e+06 M⁻¹ s⁻¹ | inhibition of aggregated tau uptake into human astrocytes [6]: 38.6% | inhibition of aggregated tau uptake into human iPSC-derived neurons [6]: 61.1% | inhibition of monomeric tau uptake into human astrocytes [7]: 67.5% | inhibition of monomeric tau uptake into human iPSC-derived neurons [7]: 89.2% | Fold change (KD, to pVH/pVL) [8]: 2.43 | Kd [8]: 2.71 nM | koff [8]: 0.00805 s⁻¹ | kon [8]: 2.97e+06 M⁻¹ s⁻¹
B4: #44_VH4VK4_H01/pVL (antibody, V domains shown)
VH: B3 VH with S99V, A101S, P104V
VL: B3 VL
notes: also called Clone VH4_H01; #44_VH4_H01
binding result (Bovine serum albumin [10]): no binding (tested: 30 ng/ml (legend 1:100))

Fold improvement (KD, to pVH/pVL) [4]: 5.1 | Kd [4]: 1.52 nM | koff [4]: 0.0037 s⁻¹ | kon [4]: 2.43e+06 M⁻¹ s⁻¹ | inhibition of aggregated tau uptake into human astrocytes [6]: 43.3% | inhibition of aggregated tau uptake into human iPSC-derived neurons [6]: 59.2% | inhibition of monomeric tau uptake into human astrocytes [7]: 64.7% | inhibition of monomeric tau uptake into human iPSC-derived neurons [7]: 84.1% | Fold change (KD, to pVH/pVL) [8]: 5.62 | Kd [8]: 1.17 nM | koff [8]: 0.00324 s⁻¹ | kon [8]: 2.78e+06 M⁻¹ s⁻¹
B5: #44_VH4VK4_H02/pVL (antibody, V domains shown)
VH: B3 VH with S99R, A101D, P104V
VL: B3 VL
notes: also called Clone VH4_H02; #44_VH4_H02
binding result (Bovine serum albumin [10]): no binding (tested: 30 ng/ml (legend 1:100))

Kd [5]: 3.83 nM | Relative KD (to VH0VK0) [5]: 1 | koff [5]: 0.0126 s⁻¹ | kon [5]: 3.28e+06 M⁻¹ s⁻¹ | Kd [2]: 4.68 nM | koff [2]: 0.00968 s⁻¹ | kon [2]: 2.07e+06 M⁻¹ s⁻¹ | Kd [9]: 3.25 nM | Relative KD (to VH0VK0) [9]: 1 | koff [9]: 0.0107 s⁻¹ | kon [9]: 3.3e+06 M⁻¹ s⁻¹
B6: #44 VH0VK0 chimeric human IgG1 (antibody, V domains shown)
VH: QSVEESGGRLVTPGTPLTLTCTVSGIDLSSYAMAWVRQAPGKGLEWIGCIDRRGGTFYASWVKGRFTISKTSTTVDLKMTSLTTEDTATYFCARDSGAFDPWGPGTLVTVSS
VL: QIVMTQTPSSVSAAVGGTVTIKCQASQSVYDNYLAWYQQKPGQPPKLLIHAASNLASRVPSRFKGSGSGTQFTLTISDVQCDDAATYYCLGEFSCTTTDCNVFGGGTEVVVK
notes: rabbit VH and VK on human IgG1; also called VH0Vκ0; Clone #44 hIgG1

EC50 [1]: 1.05 nM
B7: Clone 2 (#44) rabbit monoclonal IgG (antibody, V domains shown)
VH: B6 VH
VL: QIVMTQTPSSVSAAVGGTVTIKCQASQSVYDNYLAWYQQKPGQPPKLLIHAASNLASRVPSRFKGSGSGTQFTLTISDVQCDDAATYYCLGEFSCTTTDCNVFGGGTEVVVKG
notes: rabbit IgG; also called clone #44; D6
